B1: CPEB3 Ribozyme (parent)
chain: GGGGGCCACAGCAGAAGCGUUCACGUCGCGGCCCCUGUCAGAUUCUGGUGAAUCUGCGAAUUCUGCUGU

Variants of B1 are the subject of the data set. In words: self-cleavage, relative activity (ratio to wild type); higher = more cleavage; co-transcriptional.
Take G2A U49G: the self-cleavage was determined as 0.149.
Consider G2A U49C, for which the self-cleavage stood at 0.21.
To G2A U38A belongs 0.134; to G2A U38C, 0.117; to G2C G25U, 0.0456.
On to G2C G25C, for which the self-cleavage amounted to 0.0473.
With G2A G30A, the self-cleavage is 0.0606.
In the case of G2A G30C, the self-cleavage is 0.0605.
As for G2A G30U, the self-cleavage was determined as 0.058.
For the variant G2C U43C, the self-cleavage was 0.0672.
With G2C U43A, the self-cleavage stood at 0.0772.
As to G2U G31C, the self-cleavage was determined as 0.061.
For G2U G31U, the self-cleavage amounted to 0.0654.
Turning to G2U C6A, the self-cleavage worked out at 0.0497.
Turning to G2U C6U, the self-cleavage is 0.0652.
Regarding G2U C6G, the self-cleavage worked out at 0.0267.
To G2C C9A belongs 0.0938; to G2C C9G, 0.123; to G2U C54G, 0.0751.
Turning to G2U C54U, the self-cleavage was found to be 0.0892.
Turning to G2C A15U, the self-cleavage turned out to be 0.0423.
For the variant G2C A15C, the self-cleavage was determined as 0.0125.
G2C A15G: the self-cleavage worked out at 0.0305.
G2A G25U: the self-cleavage came out at 0.0625.
With G2A G25C, the self-cleavage turned out to be 0.0386.
For the variant G2U G11A, the self-cleavage is 0.049.
As for G2U G11U, the figure is 0.0835; as for G2A G47A, 0.189.
For G2A G47C, the self-cleavage is 0.176.
As for G2U G30U, the figure is 0.0322; as for G2U A8C, 0.0912.
As to G2U A8U, the self-cleavage is 0.0613.
As for G2U A8G, the figure is 0.0691.
Consider G2C A13G, for which the self-cleavage amounted to 0.084.
As for G2C A13U, the figure is 0.0221.
Turning to G2A U44C, the self-cleavage stood at 0.123.
As to G2A G17A, the self-cleavage is 0.0268.
As to G2A G17U, the self-cleavage is 0.0353.
For the variant G2A G50C, the self-cleavage was 0.154.
G2A G50U: the self-cleavage amounted to 0.173.
G2A G50A: the self-cleavage was 0.177.
To G2C U20C belongs 0.0285.
Take G2C U20A: the self-cleavage is 0.0496.
Take G2A G41U: the self-cleavage was determined as 0.0833.
As to G2A G41A, the self-cleavage is 0.0631.
Consider G2C G17A, for which the self-cleavage is 0.0551.
As for G2C G17C, the figure is 0.0475; as for G2U A60C, 0.0553.
Regarding G2U A60U, the self-cleavage turned out to be 0.0623.
To G2U G47C belongs 0.0826.
G2U G47U: the self-cleavage stood at 0.059.
As for G2U C29A, the self-cleavage was determined as 0.0519.
Regarding G2U C29G, the self-cleavage is 0.0442.
With G2A U55G, the self-cleavage is 0.0739.
As to G2A U55A, the self-cleavage was 0.109.
As to G2A U55C, the self-cleavage turned out to be 0.0545.
As for G2A G14A, the figure is 0.0649.
As for G2A G14U, the self-cleavage stood at 0.0746.
As for G2A G14C, the self-cleavage turned out to be 0.075.
Consider G2C C22A, for which the self-cleavage worked out at 0.0368.
Turning to G2C C22U, the self-cleavage was 0.0697.
Turning to G2C G47C, the self-cleavage was found to be 0.0332.
Regarding G2C G56C, the self-cleavage was 0.0446.
In the case of G2C G56U, the self-cleavage amounted to 0.0319.
As for G2C G56A, the figure is 0.014; as for G2C G11U, 0.0219.
Regarding G2C G11C, the self-cleavage came out at 0.0455.
In the case of G2C G11A, the self-cleavage was found to be 0.0352.
As for G2C U36C, the figure is 0.063; as for G2U G68A, 0.128; as for G2U G68C, 0.1.
In the case of G2U G68U, the self-cleavage came out at 0.106.
As for G2A U53G, the figure is 0.109; as for G2U G14C, 0.0522.
Take G2U G14U: the self-cleavage came to 0.0888.
For the variant G2C A16G, the self-cleavage was determined as 0.0604.
For the variant G2C A16C, the self-cleavage came to 0.0354.
As for G2C A16U, the figure is 0.0422; as for G2U C66G, 0.0712.
For G2C C27A, the self-cleavage was 0.0594.
G2C C27G: the self-cleavage was found to be 0.106.
Take G2U G50U: the self-cleavage came to 0.0728.
As for G2U G50C, the figure is 0.0712; as for G2C A60G, 0.0533; as for G2C A60U, 0.0243.
To G2C A60C belongs 0.0369.
As for G2C C29U, the figure is 0.0639; as for G2C C29G, 0.0119; as for G2C G41U, 0.101.
Regarding G2C G41C, the self-cleavage came to 0.0808.
Consider G2C U64A, for which the self-cleavage was found to be 0.0485.
With G2C U64C, the self-cleavage worked out at 0.0536.
To G2C U64G belongs 0.137; to G2U A59C, 0.05; to G2U A59U, 0.0606.
Consider G2U C57A, for which the self-cleavage is 0.0471.
G2U C57G: the self-cleavage worked out at 0.0241.
On to G2U G58A, for which the self-cleavage turned out to be 0.0612.
Turning to G2U G58U, the self-cleavage was 0.0822.
In the case of G2U G58C, the self-cleavage stood at 0.0697.
On to G2A G58C, for which the self-cleavage was determined as 0.106.
Regarding G2A G58U, the self-cleavage was 0.221.
As for G2A G58A, the figure is 0.0846.
Turning to G2U C35A, the self-cleavage stood at 0.256.
With G2C C35A, the self-cleavage was 0.0223.
As to G2C C35G, the self-cleavage is 0.313.
For the variant G2C C18A, the self-cleavage came to 0.0265.
Take G2C C18U: the self-cleavage came out at 0.0354.
As for G2C C45G, the self-cleavage was 0.0374.
To G2C C45U belongs 0.0464; to G2C C45A, 0.0472.
On to G2U C24G, for which the self-cleavage came out at 0.0682.
Take G2U C24A: the self-cleavage stood at 0.0672.
For the variant G2U C24U, the self-cleavage was 0.038.
Take G2C C6U: the self-cleavage worked out at 0.0751.
As for G2C C6A, the self-cleavage was 0.0465.
Regarding G2C C6G, the self-cleavage turned out to be 0.
For the variant G2C G58U, the self-cleavage was determined as 0.0467.
Regarding G2C G58C, the self-cleavage amounted to 0.0216.
To G2U A40U belongs 0.0492.
As to G2U A40C, the self-cleavage amounted to 0.087.
As for G2C, the figure is 0.0678; as for G2U, 0.0871.
Consider G2C U49G, for which the self-cleavage was 0.0393.
For G2C U49C, the self-cleavage stood at 0.0424.
For G2C U49A, the self-cleavage was found to be 0.0745.
Regarding G2U G19A, the self-cleavage was determined as 0.0693.
As for G2U G19U, the self-cleavage stood at 0.0651.
In the case of G2U G19C, the self-cleavage is 0.0206.
Take G2A U62G: the self-cleavage worked out at 0.129.
On to G2A U62A, for which the self-cleavage worked out at 0.11.
As to G2A U62C, the self-cleavage amounted to 0.146.
G2C G4U: the self-cleavage is 0.0417.
On to G2C G4A, for which the self-cleavage is 0.0684.
As for G2C G4C, the self-cleavage was found to be 0.0427.
Regarding G2C G37U, the self-cleavage was found to be 0.0045.
G2C G37A: the self-cleavage is 0.0459.
In the case of G2U A13C, the self-cleavage was 0.09.
To G2U A13U belongs 0.052.
As for G2U G37U, the figure is 0.0465; as for G2U G37A, 0.0373.
As to G2U A15U, the self-cleavage was determined as 0.0721.
In the case of G2U A15C, the self-cleavage worked out at 0.085.
Consider G2C A40C, for which the self-cleavage came to 0.0316.
As to G2C A40G, the self-cleavage is 0.0911.
For the variant G2C A40U, the self-cleavage came out at 0.0469.
As to G2C C7A, the self-cleavage is 0.0323.
Consider G2C C7U, for which the self-cleavage is 0.0258.
To G2U A10C belongs 0.0945; to G2A U46A, 0.202.
In the case of G2A U46G, the self-cleavage came out at 0.135.
To G2A U46C belongs 0.13.
With G2C C66A, the self-cleavage is 0.052.
Take G2C C66U: the self-cleavage was 0.0685.
Turning to G2C G14C, the self-cleavage stood at 0.0627.
As to G2C G14A, the self-cleavage was determined as 0.0455.
As for G2A G56C, the self-cleavage came out at 0.0906.
For G2A G56U, the self-cleavage was determined as 0.0991.
On to G2A G56A, for which the self-cleavage was determined as 0.1.
As for G2C G65C, the self-cleavage was determined as 0.0537.
Turning to G2C G31U, the self-cleavage was determined as 0.0216.
For the variant G2C G31C, the self-cleavage came out at 0.0401.
Turning to G2C G31A, the self-cleavage is 0.0545.
As to G2A G65C, the self-cleavage amounted to 0.122.
Take G2A G65U: the self-cleavage came out at 0.067.
Turning to G2C U44C, the self-cleavage was determined as 0.0257.
For G2A G48C, the self-cleavage was 0.227.
